Broadly, the stoichiometry N is a count of units in the complex or per binding partner.

The target of experiment [1] is N,N-diacetylchitobiose deacetylase from Pyrococcus chitonophagus (Pyrococcus chitonophagus DSM 10152). In words: SEC-SAXS; stock solution 4.7 mg/mL, Superdex 200 Increase 5/150 GL, injected at 4 °C, 0.35 mL/min; main peak fitted with the crystallographic hexamer, chi^2 = 1.2. On the technique in general: Size exclusion chromatography separates by hydrodynamic size, large species first.

The target is the same in experiment [2]. In words: SAXS; batch mode, dilution series 0.2-3.48 mg/mL in Buffer A (20 mM TRIS pH 7.4, 200 mM NaCl), room temperature; curves fitted with the crystallographic hexamer and a 'dodecameric' model (CRYSOL, OLIGOMER).
Experiment [3] has the same target. In words: crystal structure; three crystal forms: P2(1) with (GlcNAc)2 (two hexamers in the asymmetric unit), P3(2)21 unliganded (half a hexamer, other half by the crystallographic two-fold axis), P2(1)2(1)2(1) (one hexamer); data at 100 K.
The target in experiment [4] is T1, Pch-Dac (N,N-diacetylchitobiose deacetylase) (Thermococcus chitonophagus, UniProt A0A160VQZ8).
T1 construct: gene CHITON_0574; full gene in pET151D-TOPO, N-terminal 6xHis-TEV tag cut, expressed in E. coli BL21-Magic
T1 sequence (A0A160VQZ8 1-267): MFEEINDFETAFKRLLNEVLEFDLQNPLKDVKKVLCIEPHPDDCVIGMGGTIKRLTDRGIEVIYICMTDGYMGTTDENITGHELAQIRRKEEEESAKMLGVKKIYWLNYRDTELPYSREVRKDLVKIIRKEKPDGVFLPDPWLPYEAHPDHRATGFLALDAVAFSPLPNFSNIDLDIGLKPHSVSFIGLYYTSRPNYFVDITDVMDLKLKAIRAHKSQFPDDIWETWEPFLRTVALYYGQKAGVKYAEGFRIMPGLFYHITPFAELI
The experiment in a line: ITC total heat (Happ) and 1H NMR. The following applies: ITC pH 6.5, 75 °C; NMR HEPES pH 7.5; non-reducing-end deacetylation. In kind it is biochemical.

On to “N,N-diacetylchitobiose deacetylase from Pyrococcus chitonophagus (enzyme)”, for which the stoichiometry N in experiment [1], in experiment [2] and in experiment [3] was 6 throughout. In experiment [2], this compound registered a percent of the scattering accounted for by the hexameric model of 84 to 87%.
Regarding `CC(=O)N[C@H]1[C@H](O[C@H]2[C@H](O)[C@@H](N)C(O)O[C@@H]2CO)O[C@H](CO)[C@@H](O)[C@@H]1O` (stereo partly drawn) [GlcNAc-GlcN, 1,4-β-D-acetyl glucosaminyl-D-N-glucosamine], in experiment [4], the “ITC total heat (Happ) and 1H NMR” value was “Reaction was observed only in the case of GlcNAc-GlcN”.

For the origin of these results see PMC9779004, “Structural, Thermodynamic and Enzymatic Characterization of N,N-Diacetylchitobiose Deacetylase from Pyrococcus chitonophagus” (International Journal of Molecular Sciences, 2022).
